Several values for one entry are separate records, joined by “and”; a condition that tells them apart may be missing. Identical values can stand only once. Like-named read-outs stand apart in the source and are kept apart here.
Columns and labels:
[1] = biological target: GMPCPP-stabilized HeLa cell microtubules (human (endogenous in HeLa)) (UniProt P68363); assay: cryo-EM structure
[2] = biological target: GMPCPP-stabilized HeLa cell microtubules (human (endogenous in HeLa)) (UniProt P68363); assay: cryo-EM structure; remark: listed apart in the source
[3] = biological target: Taxol-stabilized microtubules enriched in tyrosinated HeLa tubulin (human (endogenous in HeLa) | not stated) (UniProt P68363); assay: single-molecule TIRF microscopy
Sequence of Taxol-stabilized microtubules enriched in tyrosinated HeLa tubulin (human (endogenous in HeLa) | not stated) (P68363 whole entry, chain 1 of 2): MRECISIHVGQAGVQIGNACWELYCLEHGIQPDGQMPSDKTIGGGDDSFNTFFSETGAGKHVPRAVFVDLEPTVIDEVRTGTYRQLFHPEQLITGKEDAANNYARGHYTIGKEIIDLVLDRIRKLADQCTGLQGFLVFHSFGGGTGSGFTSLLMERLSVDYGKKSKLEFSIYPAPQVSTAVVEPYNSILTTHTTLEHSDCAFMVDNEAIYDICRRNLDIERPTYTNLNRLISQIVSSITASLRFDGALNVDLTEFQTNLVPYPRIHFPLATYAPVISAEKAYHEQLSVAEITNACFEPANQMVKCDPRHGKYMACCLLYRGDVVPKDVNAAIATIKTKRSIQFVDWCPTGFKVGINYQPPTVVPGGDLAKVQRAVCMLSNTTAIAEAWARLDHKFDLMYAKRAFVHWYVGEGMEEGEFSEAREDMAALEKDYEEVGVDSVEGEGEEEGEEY
Sequence of Taxol-stabilized microtubules enriched in tyrosinated HeLa tubulin (human (endogenous in HeLa) | not stated) (P07437 whole entry, chain 2 of 2, further chain): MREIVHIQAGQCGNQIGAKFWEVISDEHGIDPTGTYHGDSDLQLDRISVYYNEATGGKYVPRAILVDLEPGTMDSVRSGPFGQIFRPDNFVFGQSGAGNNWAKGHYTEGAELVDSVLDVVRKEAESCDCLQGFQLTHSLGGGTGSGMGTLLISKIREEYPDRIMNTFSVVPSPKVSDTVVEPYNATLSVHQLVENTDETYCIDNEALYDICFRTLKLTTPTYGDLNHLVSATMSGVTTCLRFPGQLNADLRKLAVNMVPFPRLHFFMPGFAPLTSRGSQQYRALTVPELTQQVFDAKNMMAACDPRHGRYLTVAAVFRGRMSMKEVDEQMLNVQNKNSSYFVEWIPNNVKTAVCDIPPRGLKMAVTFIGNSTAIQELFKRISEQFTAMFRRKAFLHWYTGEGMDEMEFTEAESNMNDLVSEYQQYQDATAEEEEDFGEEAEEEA

[4] = biological target: Taxol-stabilized microtubules enriched in detyrosinated HeLa tubulin (human (endogenous in HeLa) | not stated) (UniProt P68363); assay: single-molecule TIRF microscopy
Sequence of Taxol-stabilized microtubules enriched in detyrosinated HeLa tubulin (human (endogenous in HeLa) | not stated) (P68363 1-450, chain 1 of 2): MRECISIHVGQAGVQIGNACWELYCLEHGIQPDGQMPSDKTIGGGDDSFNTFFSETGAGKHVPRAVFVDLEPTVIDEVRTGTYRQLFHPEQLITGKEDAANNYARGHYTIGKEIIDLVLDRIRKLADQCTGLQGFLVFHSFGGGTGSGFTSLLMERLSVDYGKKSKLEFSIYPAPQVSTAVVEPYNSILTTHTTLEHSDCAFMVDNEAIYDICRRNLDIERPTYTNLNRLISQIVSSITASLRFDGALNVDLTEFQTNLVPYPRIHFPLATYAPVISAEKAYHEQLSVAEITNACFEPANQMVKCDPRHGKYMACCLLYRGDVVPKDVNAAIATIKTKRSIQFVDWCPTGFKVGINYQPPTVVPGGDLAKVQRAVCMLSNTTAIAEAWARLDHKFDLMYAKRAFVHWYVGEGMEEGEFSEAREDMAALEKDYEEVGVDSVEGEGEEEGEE
Sequence of Taxol-stabilized microtubules enriched in detyrosinated HeLa tubulin (human (endogenous in HeLa) | not stated) (P07437 whole entry, chain 2 of 2, further chain): as the sequence (P07437 whole entry, chain 2 of 2, further chain) above

[5] = biological target: Taxol-stabilized microtubules enriched in tyrosinated HeLa tubulin (human (endogenous in HeLa) | not stated) (UniProt P68363); assay: single-molecule TIRF microscopy; remark: listed apart in the source
[6] = biological target: Taxol-stabilized microtubules enriched in tyrosinated HeLa tubulin (human (endogenous in HeLa) | not stated) (UniProt P68363); assay: single-molecule TIRF microscopy; remark: listed apart in the source
[7] = biological target: Taxol-stabilized microtubules enriched in tyrosinated HeLa tubulin (human (endogenous in HeLa) | not stated) (UniProt P68363); assay: single-molecule TIRF microscopy; remark: listed apart in the source
[8] = biological target: Taxol-stabilized microtubules enriched in detyrosinated HeLa tubulin (human (endogenous in HeLa) | not stated) (UniProt P68363); assay: single-molecule TIRF microscopy; remark: listed apart in the source
[9] = biological target: Taxol-stabilized microtubules enriched in tyrosinated HeLa tubulin (human (endogenous in HeLa) | not stated) (UniProt P68363); assay: single-molecule TIRF microscopy; remark: listed apart in the source

Sequence of full-length sfGFP-VASH2–SVBP complex (Q86V25 whole entry): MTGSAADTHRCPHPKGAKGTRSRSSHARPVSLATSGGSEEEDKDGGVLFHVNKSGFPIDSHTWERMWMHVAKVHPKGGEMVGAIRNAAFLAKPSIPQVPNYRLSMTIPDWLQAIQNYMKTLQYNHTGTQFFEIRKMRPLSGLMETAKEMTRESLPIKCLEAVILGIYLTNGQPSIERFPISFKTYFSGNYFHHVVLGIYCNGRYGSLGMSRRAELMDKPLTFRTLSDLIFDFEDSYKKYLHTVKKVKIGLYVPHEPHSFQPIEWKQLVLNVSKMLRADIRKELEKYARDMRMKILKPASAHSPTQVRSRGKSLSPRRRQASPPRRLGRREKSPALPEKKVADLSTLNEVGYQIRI
Sequence of full-length sfGFP-VASH2–SVBP complex (Q8N300 whole entry): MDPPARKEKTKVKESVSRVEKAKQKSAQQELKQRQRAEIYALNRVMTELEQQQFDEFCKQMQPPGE
Sequence of full-length sfGFP-VASH1–SVBP complex (Q7L8A9 whole entry): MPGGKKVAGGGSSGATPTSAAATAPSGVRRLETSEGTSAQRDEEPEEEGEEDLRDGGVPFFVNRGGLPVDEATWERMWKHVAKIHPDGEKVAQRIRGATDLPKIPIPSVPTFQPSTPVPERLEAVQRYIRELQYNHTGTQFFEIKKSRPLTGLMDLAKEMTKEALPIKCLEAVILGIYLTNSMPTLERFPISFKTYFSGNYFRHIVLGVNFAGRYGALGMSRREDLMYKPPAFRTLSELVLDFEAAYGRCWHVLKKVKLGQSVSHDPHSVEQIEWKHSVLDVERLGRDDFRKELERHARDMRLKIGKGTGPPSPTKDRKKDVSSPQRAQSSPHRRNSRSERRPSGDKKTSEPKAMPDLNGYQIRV
Sequence of full-length sfGFP-VASH1–SVBP complex (Q8N300 whole entry): as the sequence (Q8N300 whole entry) above

binding frequency (min^−1.nM^−1.µm^-1) [3] | residence time τ [4] | binding frequency (min-1.nM^−1.µm^−1) [5] | binding frequency (min^−1.nM^−1.µm^-1) [5] | mean covering of the microtubule surface during a 45 s movie [5] | residence time τ [5] | residence time τ [6] | residence time τ [7] | Substance | other results
 |  |  |  |  |  |  |  | catalytically dead VASH2(Cys158Ala)–SVBP complex for cryo-EM (from UniProt Q86V25 1-355; Q8N300 1-66) | occupancy of the binding sites on the microtubule [1]: 50.9%; occupancy of the binding sites on the microtubule [2]: 40%
86.4 | 0.6 s | 80.4 | 132 | 82% | 1 s and 1.2 s |  |  | catalytically dead full-length sfGFP-VASH1(C169A)–SVBP complex (from UniProt Q7L8A9-1 1-365; Q8N300 1-66) | 
 |  |  | 13.9 | 28% | > 14.6 s |  |  | catalytically dead full-length sfGFP-VASH2(C158A)–SVBP complex (from UniProt Q86V25-1 1-355; Q8N300 1-66) | 
 |  | 70.7 |  |  |  |  |  | dead VASH1 core domain (sfGFP-VASH1 57–307 C169A) in complex with SVBP (from UniProt Q7L8A9-1 57-307; Q8N300 1-66) | 
51.6 | 0.5 s |  | 80.8 | 75% | 0.5 s and 0.8 s | 1.2 s | 0.2 s | full-length sfGFP-VASH1–SVBP complex (from UniProt Q7L8A9-1 1-365; Q8N300 1-66) | residence time τ [3]: 0.8 s; binding frequency (min^−1.nM^−1.µm^-1) [7]: 3
 |  |  | 13 | 25% | > 11 s | > 12.9 s | 3.9 s | full-length sfGFP-VASH2–SVBP complex (from UniProt Q86V25-1 1-355; Q8N300 1-66) | residence time τ [8]: 0.6 s; residence time τ [9]: 0.9 s
